Laboratory results taken from PMC5779224 (2017).
Where two headings read alike, the source gives them in different places.

What was measured:
[1] = molecular target: T1, AnkB_MBD R1 charge reversal mutant ('EAAE') (human, UniProt Q01484-2 28-827, 37RAAR40 to 37EAAE40); assay: FP
T1 sequence: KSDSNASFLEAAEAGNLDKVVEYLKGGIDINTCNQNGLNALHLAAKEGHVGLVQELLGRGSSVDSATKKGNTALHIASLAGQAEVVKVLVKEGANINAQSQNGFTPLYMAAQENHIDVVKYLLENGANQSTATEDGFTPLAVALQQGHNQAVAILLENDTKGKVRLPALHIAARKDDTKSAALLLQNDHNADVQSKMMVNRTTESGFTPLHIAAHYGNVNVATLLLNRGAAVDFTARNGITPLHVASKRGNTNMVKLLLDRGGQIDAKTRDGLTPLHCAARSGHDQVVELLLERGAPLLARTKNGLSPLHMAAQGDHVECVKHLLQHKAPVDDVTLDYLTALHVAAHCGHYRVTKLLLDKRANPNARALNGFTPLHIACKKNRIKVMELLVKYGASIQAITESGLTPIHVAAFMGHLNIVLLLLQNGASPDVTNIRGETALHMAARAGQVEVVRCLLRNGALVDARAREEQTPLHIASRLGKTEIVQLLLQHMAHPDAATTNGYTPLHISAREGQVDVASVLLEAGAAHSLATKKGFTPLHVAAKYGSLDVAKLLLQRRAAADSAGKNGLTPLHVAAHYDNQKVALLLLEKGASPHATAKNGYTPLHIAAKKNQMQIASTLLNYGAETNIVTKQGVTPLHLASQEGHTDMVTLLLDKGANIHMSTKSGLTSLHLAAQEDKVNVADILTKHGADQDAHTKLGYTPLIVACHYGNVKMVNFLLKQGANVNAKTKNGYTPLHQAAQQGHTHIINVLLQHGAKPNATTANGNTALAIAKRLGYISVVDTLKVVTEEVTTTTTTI

[2] = molecular target: T2, AnkG 38–903 (MBD + AI-c + AI-b) (rat, UniProt O70511-1 38-903); assay: ITC; too weak to be reliably fit
T2 chain: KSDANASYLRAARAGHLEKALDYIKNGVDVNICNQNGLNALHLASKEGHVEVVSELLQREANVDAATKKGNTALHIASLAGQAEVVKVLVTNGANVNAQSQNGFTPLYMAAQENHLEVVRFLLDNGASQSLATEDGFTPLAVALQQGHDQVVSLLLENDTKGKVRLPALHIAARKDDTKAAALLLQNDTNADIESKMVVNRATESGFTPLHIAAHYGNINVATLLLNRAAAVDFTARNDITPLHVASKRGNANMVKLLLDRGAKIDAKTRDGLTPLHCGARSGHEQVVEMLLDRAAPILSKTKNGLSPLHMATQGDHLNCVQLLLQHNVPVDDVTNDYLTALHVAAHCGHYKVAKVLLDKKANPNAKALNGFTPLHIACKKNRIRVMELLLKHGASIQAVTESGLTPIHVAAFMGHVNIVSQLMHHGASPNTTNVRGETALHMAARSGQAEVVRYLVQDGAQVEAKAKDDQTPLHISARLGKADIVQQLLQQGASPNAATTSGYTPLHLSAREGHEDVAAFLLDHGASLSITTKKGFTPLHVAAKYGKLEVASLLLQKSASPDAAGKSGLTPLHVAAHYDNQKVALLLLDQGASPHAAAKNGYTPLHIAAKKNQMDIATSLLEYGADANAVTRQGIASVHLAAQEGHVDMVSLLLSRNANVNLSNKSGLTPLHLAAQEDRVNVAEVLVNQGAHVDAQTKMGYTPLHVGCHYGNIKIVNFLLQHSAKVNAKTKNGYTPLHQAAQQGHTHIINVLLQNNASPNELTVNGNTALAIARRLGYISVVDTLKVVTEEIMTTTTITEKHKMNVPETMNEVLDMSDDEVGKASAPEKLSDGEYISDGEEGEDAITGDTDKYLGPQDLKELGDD

[3] = molecular target: T3, AnkG 38–855 (AnkG MBD-AI-c protein; MBD + partial AI-c) (rat, UniProt O70511-1 38-855); assay: ITC
T3 chain: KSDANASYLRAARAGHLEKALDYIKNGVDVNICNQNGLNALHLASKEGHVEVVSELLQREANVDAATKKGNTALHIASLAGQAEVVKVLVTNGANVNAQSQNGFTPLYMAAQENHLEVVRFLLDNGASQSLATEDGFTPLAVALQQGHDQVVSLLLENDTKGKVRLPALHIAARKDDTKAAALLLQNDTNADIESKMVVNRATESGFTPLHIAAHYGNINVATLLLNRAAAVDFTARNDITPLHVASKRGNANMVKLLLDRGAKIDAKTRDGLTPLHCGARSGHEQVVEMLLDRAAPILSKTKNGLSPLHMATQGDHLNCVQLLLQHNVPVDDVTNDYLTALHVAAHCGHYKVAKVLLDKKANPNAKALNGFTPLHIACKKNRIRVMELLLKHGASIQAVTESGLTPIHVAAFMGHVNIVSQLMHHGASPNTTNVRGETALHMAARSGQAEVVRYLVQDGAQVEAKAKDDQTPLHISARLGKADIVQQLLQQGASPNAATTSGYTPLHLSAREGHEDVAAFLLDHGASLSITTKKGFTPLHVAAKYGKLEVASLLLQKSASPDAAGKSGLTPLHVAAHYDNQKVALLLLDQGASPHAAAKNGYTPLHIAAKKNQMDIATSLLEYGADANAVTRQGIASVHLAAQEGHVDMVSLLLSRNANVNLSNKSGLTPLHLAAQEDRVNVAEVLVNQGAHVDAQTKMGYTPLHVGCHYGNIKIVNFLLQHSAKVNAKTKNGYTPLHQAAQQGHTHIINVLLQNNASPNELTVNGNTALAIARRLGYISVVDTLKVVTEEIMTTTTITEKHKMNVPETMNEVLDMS

[4] = molecular target: T4, AnkB 28–847 (MBD + partial AI-c) (human, UniProt Q01484-2 28-847); assay: ITC
T4 chain: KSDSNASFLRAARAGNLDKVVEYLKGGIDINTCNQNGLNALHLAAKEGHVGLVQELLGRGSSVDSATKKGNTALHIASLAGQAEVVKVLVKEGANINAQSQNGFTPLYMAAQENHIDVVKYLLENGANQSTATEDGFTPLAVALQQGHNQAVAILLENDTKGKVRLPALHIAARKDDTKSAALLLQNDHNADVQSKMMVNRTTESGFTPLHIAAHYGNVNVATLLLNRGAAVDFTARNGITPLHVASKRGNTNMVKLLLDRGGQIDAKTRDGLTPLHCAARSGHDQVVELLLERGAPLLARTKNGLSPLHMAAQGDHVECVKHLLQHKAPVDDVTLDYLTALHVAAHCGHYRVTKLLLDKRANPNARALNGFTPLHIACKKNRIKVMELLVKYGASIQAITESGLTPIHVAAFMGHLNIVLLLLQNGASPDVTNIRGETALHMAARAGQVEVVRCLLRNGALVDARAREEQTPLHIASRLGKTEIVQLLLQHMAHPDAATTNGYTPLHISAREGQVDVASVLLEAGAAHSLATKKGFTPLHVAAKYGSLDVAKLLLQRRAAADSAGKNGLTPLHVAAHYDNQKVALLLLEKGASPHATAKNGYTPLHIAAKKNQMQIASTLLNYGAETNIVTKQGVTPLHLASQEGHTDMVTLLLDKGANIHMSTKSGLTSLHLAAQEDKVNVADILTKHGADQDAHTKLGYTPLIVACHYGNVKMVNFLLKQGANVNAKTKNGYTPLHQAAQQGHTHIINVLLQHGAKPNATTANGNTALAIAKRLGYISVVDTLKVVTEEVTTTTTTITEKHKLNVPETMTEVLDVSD

AnkB_MBD Asn595Ala = molecular target: T5, AnkB_MBD Asn595Ala (human, UniProt Q01484-2 28-827, Asn595Ala); assay: ITC
T5 sequence: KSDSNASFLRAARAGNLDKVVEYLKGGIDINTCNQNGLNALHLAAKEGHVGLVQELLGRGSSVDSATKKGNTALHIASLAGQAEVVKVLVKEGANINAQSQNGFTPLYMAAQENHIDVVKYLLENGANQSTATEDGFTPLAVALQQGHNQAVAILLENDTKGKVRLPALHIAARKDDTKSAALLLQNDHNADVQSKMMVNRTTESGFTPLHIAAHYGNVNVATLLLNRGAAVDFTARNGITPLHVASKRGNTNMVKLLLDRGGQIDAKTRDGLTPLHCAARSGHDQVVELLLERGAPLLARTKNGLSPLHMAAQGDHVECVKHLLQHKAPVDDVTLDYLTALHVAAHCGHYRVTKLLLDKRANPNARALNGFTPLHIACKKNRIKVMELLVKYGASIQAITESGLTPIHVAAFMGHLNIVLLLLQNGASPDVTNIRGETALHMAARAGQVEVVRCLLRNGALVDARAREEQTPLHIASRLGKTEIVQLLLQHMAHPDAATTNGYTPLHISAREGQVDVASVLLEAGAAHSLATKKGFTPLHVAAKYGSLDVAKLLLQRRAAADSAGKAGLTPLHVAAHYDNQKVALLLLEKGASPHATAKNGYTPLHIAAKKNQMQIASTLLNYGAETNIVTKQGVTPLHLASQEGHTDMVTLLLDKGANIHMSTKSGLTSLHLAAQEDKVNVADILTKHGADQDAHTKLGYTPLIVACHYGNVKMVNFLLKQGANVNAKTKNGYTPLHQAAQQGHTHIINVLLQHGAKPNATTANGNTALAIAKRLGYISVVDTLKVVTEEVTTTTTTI

[5] = molecular target: T6, AnkB_MBD (AnkB ANK repeats only, aa 28–827) (human, UniProt Q01484-2 28-827); assay: ITC
T6 chain: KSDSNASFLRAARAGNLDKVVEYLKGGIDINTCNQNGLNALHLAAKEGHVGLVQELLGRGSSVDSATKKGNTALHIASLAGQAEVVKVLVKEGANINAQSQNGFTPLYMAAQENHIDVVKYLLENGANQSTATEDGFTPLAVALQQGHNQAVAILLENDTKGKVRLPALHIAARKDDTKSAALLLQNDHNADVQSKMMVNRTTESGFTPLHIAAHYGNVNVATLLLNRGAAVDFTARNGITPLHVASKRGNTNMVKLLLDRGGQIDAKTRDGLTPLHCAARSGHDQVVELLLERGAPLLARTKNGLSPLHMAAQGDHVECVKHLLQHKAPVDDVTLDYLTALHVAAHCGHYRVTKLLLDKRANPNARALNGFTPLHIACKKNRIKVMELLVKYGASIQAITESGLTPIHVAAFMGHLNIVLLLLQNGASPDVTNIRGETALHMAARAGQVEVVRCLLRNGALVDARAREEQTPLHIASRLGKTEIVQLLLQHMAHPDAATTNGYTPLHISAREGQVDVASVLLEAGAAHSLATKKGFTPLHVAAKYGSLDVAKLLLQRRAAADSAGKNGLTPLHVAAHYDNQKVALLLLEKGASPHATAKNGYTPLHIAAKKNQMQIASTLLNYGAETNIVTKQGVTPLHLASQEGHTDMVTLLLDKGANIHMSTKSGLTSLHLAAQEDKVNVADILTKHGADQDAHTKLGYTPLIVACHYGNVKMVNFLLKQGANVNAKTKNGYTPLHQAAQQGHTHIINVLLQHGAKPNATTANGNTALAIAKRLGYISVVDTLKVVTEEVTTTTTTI

[6] = molecular target: T6, AnkB_MBD (AnkB ANK repeats only, aa …); assay: ITC

B1: AnkB_AI-a peptide (aa 1623–1635) (peptide)
peptide: HPPIVSEEDISVG
Kd [1]: 43800 nM

B2: E-cadherin (aa 734–884) (domain or fragment)
chain: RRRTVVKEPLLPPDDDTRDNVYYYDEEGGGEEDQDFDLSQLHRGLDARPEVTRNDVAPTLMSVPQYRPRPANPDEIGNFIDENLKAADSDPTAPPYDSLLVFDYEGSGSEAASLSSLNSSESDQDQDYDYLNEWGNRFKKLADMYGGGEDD
Kd [2]: ~45000 nM | Kd [3]: 610 nM | Kd [4]: 780 nM

B3: AnkB_AI-c (aa 828–852) (domain or fragment)
chain: TEKHKLNVPETMTEVLDVSDEEGDD
Kd (AnkB_MBD Asn595Ala): 2400 nM | Kd [5]: 360 nM

B4: AnkR/B_CT Chimera (peptide)
chain: CADQYWNEVAVIDAIPLAATEHDTMLEMSDMQVWSAGDHPPIVSEEDIS
Kd [6]: 470 nM
